These results are taken from paper PMC12334862.

For assay [1], the target named is His6-tagged dimerization-deficient rat gephyrin variant (G483D, S505F), trimers (ddGephT) (rat). In words: SEC; single proteins: preparative Superdex 200 16/60 after Ni-NTA and analytical Superose 6 increase; molecular weights by comparison to standard proteins; oligomeric state of the protein with itself.
Assay [2] deals with His6-tagged rat gephyrin P1, wild type, high oligomers (GephHO) (rat). In words: SEC; as a1 with 1.5 nmol of the respective PIP (10 mol% in POPC) or POPC alone in DDM micelles added; SEC buffer with 0.01% DDM; height of the > 5 MDa void peak P1 at 280 nm.
The target of assay [3] is His6-tagged rat gephyrin E-domain, wild type (WT-GephE) (rat). Kind of assay: mass photometry; Refeyn TwoMP; 5 nM final in 25 mM Tris/HCl pH 7.5, 150 mM NaCl, 5 mM β-mercaptoethanol, 1% glycerol; 60 s.
The target of assay [4] is His6-tagged rat gephyrin P1, wild type, high oligomers (GephHO) (rat). Kind of assay: SEC; single proteins: preparative Superdex 200 16/60 after Ni-NTA and analytical Superose 6 increase; molecular weights by comparison to standard proteins; oligomeric state of the protein with itself.
Assay [5] concerns the target His6-tagged rat gephyrin P1, wild type, trimers (GephT) (rat). Described as above.
Assay [6] concerns the target collybistin CB2SH3+ (Rattus norvegicus) (UniProt Q9QX73). In words: FRET. The following applies: cited from earlier work.
The target of assay [7] is gephyrin from pig brain (pig (endogenous in pig brain tissue)). Kind of assay: native gel or EMSA; blue native PAGE (4%-16%) of the cytosol fraction of pig brain, western blot for gephyrin.

gephyrin E-domain, sequence (Q03555 326-768): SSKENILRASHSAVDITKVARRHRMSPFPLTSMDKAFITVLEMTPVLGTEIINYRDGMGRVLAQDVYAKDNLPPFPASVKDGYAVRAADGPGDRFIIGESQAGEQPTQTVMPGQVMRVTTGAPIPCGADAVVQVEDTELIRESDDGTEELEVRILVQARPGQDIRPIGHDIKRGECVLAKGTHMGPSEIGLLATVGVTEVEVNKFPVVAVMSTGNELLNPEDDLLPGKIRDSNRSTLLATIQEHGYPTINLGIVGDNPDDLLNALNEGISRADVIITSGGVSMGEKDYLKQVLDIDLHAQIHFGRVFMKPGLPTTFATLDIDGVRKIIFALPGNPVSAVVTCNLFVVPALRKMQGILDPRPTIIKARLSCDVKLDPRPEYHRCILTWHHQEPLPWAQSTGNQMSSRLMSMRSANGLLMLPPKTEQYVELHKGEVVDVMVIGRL
collybistin CB2SH3+ (Rattus norvegicus), sequence (Q9QX73 whole entry): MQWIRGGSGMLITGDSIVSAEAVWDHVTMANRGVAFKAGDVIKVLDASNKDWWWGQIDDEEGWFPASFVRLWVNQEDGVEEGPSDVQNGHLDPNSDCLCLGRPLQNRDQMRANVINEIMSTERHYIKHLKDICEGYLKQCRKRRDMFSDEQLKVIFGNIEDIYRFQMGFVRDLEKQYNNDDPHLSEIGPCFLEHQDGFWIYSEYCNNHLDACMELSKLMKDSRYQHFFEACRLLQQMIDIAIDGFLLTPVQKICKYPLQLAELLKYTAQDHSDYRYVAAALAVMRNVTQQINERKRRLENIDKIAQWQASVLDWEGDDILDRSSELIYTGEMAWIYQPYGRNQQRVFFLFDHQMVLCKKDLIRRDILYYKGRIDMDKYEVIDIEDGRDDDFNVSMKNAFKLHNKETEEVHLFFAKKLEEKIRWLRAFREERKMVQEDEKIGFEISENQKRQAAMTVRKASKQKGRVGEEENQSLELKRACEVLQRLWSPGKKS

Take “His6-tagged dimerization-deficient rat gephyrin variant (G483D, S505F), trimers (ddGephT) (natural protein)”: in assay [1], the stoichiometry N was determined as 3.
In the case of “His6-tagged rat collybistin isoform 2 lacking the SH3 domain (CB2_(SH3-)) (natural protein)”, in assay [2], the P1 (> 5 MDa complex peak) absorption at 280 nm with PI(3,4)P2 came out at 344 mAU, the P1 (> 5 MDa complex peak) absorption at 280 nm with PI(3,4,5)P3 is 378 mAU, the P1 (> 5 MDa complex peak) absorption at 280 nm with PI(4,5)P2 was determined as 255 mAU and the P1 (> 5 MDa complex peak) absorption at 280 nm with POPC was 148 mAU. In assay [2], this substance showed an increase of the CB2SH3- band share within P1 with PI(3,4,5)P3 against the POPC control of 22% and an increase of the GephHO band share within P1 with PI(3,4,5)P3 against the POPC control of 21%.
Substance “His6-tagged rat gephyrin E-domain, wild type (WT-GephE) (domain or fragment)” returned a stoichiometry N in assay [3] of 2.
The substance “His6-tagged rat gephyrin P1, wild type, high oligomers (GephHO) (natural protein)” showed a stoichiometry N in assay [4] of 12.
Regarding “His6-tagged rat gephyrin P1, wild type, trimers (GephT) (natural protein)”, in assay [5], the stoichiometry N came to 3.
Consider gephyrin E-domain (from UniProt Q03555), for which the Kd in assay [6] was 6.3 µM.
“gephyrin from pig brain (natural protein)” gave a stoichiometry N in assay [7] of 3.
